# From patent US20050107285A1
# How the values were obtained:
# [1] = biological target: FcγRIIIb receptor on human neutrophils (human) (UniProt O75015); experiment: flow cytometry of TNFα-primed human neutrophils with saturating FITC-Leu11b, quantified with Quantum Simply Cellular microbeads
# [2] = biological target: FcγRIIIb receptor on human neutrophils (human) (UniProt O75015); experiment: cell-based or functional assay
# Chain of UniProt O75015 (O75015 17-200): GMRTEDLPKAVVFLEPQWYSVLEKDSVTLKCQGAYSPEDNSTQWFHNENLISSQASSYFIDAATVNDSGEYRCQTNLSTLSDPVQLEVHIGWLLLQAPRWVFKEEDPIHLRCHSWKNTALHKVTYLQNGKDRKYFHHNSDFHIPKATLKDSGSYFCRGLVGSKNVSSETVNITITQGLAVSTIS
antibody-binding sites per cell (antibody-binding sites per cell) [1],respiratory burst (luminol chemiluminescence) of primed neutrophils after PI-PLC depletion of surface FcγRIIIb [2],Substance
240000,–,FITC-labelled Leu11b (anti-CD16) (antibody)
–,70 % decrease,insoluble IgG-containing immune complexes (human serum albumin and rabbit anti-HSA antibodies) (from UniProt P02768 25-609)
